Data set [1] deals with T1, Pdr5 (Saccharomyces cerevisiae, UniProt P33302).
T1 construct: full-length, N-terminal 14x His tag with protease cleavage site; homologous expression in S. cerevisiae (pdr1-3), solubilized and purified in trans-PCC-α-M by IMAC and SEC
Briefly: enzyme-coupled (PK/LDH, NADH) ATPase assay. It is filed as biochemical. Conditions: 4 mM ATP, 5 mM MgCl2, 300 mM Tris-glycine pH 8, 30 °C, 0.004% trans-PCC-α-M.

Data set [2] has as its target T1, Pdr5. Briefly: inhibition of ATPase, colorimetric phosphate release. It is filed as biochemical. An excerpt:
inhibition of ATPase, colorimetric phosphate release on Pdr5

Data set [3] relates to O=c1ccn([C@@H]2O[C@H](COP(=O)(O)OP(=O)(O)OP(=O)(O)O)[C@@H](O)[C@H]2O)c(=O)[nH]1. Kind of data set: purified protein. Conditions: 10 mM MgCl2, 300 mM Tris-glycine pH 9.5, 0.004% trans-PCC-α-M, 20 min, 0-5 mM NTP.
Data set [4] deals with Nc1ccn([C@@H]2O[C@H](COP(=O)(O)OP(=O)(O)OP(=O)(O)O)[C@@H](O)[C@H]2O)c(=O)n1. Briefly: purified protein. Particulars: 10 mM MgCl2, 300 mM Tris-glycine pH 9.5, 0.004% trans-PCC-α-M, 20 min, 0-5 mM NTP.
In data set [5] the test system is Nc1nc2c(ncn2[C@@H]2O[C@H](COP(=O)(O)OP(=O)(O)OP(=O)(O)O)[C@@H](O)[C@H]2O)c(=O)[nH]1. Kind of data set: purified protein. Conditions: 10 mM MgCl2, 300 mM Tris-glycine pH 9.5, 0.004% trans-PCC-α-M, 20 min, 0-5 mM NTP.
Data set [6] deals with Nc1ncnc2c1ncn2[C@@H]1O[C@H](COP(=O)(O)OP(=O)(O)OP(=O)(O)O)[C@@H](O)[C@H]1O. Briefly: purified protein. Particulars: 10 mM MgCl2, 300 mM Tris-glycine pH 9.5, 0.004% trans-PCC-α-M, 20 min, 0-5 mM NTP.

T1 sequence (P33302 whole entry): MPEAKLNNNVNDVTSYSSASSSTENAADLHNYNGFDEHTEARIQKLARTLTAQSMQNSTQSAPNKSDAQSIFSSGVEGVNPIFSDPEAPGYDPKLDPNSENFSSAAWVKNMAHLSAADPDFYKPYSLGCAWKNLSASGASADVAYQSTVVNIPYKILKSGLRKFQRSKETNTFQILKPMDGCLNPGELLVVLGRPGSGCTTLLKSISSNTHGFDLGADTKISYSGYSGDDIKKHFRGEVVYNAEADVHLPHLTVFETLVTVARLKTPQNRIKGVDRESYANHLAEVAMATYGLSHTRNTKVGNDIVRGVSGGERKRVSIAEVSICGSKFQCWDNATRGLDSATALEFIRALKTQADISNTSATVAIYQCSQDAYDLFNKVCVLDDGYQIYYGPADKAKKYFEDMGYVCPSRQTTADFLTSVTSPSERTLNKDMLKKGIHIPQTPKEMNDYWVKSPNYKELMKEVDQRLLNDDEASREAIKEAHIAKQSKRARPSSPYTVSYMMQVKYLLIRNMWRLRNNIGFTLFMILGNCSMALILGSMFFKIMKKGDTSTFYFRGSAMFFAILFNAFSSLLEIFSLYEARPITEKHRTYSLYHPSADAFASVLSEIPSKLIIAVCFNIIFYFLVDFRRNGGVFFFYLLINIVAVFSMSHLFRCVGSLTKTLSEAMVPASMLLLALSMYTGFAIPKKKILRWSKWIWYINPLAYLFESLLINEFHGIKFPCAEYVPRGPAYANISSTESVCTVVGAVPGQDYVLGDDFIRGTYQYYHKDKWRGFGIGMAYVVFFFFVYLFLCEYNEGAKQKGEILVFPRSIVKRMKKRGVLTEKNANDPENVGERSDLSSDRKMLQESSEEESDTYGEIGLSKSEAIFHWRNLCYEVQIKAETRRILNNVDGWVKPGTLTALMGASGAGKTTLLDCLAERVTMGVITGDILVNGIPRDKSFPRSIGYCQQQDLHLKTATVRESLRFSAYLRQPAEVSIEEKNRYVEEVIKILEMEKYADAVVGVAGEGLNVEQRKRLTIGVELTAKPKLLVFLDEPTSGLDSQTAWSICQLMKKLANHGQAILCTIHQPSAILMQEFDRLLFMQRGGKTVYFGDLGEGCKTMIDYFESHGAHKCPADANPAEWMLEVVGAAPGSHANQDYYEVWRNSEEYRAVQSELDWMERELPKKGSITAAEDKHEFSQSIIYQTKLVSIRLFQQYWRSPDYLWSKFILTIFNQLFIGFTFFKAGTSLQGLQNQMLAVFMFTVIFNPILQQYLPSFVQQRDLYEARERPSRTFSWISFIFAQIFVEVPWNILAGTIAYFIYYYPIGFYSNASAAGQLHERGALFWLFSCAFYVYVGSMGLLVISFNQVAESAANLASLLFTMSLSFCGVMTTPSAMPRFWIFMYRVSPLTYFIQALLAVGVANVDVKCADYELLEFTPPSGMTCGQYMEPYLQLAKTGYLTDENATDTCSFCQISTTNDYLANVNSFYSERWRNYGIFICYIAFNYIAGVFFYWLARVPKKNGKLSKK

For the compound `Nc1ncnc2c1ncn2[C@@H]1O[C@H](COP(=O)(O)O)[C@@H](O)[C@H]1O` [AMP], the “maximum inhibition at 2 mM AMP” value on Pdr5 [1] is given as ~ 20%.
On Pdr5 [2], `CC(=O)N1CCN(c2ccc(OCC3COC(Cn4ccnc4)(c4ccc(Cl)cc4Cl)O3)cc2)CC1` (stereo not drawn) [ketoconazole] displayed a Ki of 22.7 ± 2.1 µM.
On the same count and under the same terms, the same measure for `CCN=c1cc2oc3cc(NCC)c(C)cc3c(-c3ccccc3C(=O)OCC)c-2cc1C` [rhodamine 6 G]: 3.2 ± 0.2 µM.
For the compound Pdr5 (Saccharomyces cerevisiae S288C), the Km in data set [3] stood at 590 ± 110 µM; in data set [4], 1620 ± 250 µM; in data set [5], 1610 ± 300 µM; in data set [6], 440 ± 50 µM. Also, the Vmax came out at 0.0646 µmol/min/mg in data set [3], 0.385 µmol/min/mg in data set [4], 0.106 µmol/min/mg in data set [5] and 0.208 µmol/min/mg in data set [6]. The Vmax/Km in data set [3] is 100 µL/min/mg; in data set [4] it was 200 µL/min/mg; in data set [5], 100 µL/min/mg; in data set [6] it was 500 µL/min/mg.

For orientation: Ki means the equilibrium dissociation constant of an inhibitor or competing ligand from its target. Lower therefore signals tighter binding. For orientation: Km means the substrate concentration at which the rate is half of its maximum. As a reminder, the Vmax is the top rate of the reaction or transport when substrate is in excess.

For the origin of these results see PMC6533308, “In vitro NTPase activity of highly purified Pdr5, a major yeast ABC multidrug transporter” (Scientific Reports, 2019).
